Source: US20090075342

Test system: IgE (full length human IgE, h-IgE) (Homo sapiens), P01854-1
Assay: filter
Settings: 2'-deoxy at 6, 8, 9, 16, 18, 19, 20, 21, deoxyinosine at 16, 18, 20 (written as G), T24 = 3' inverted dT], dot-blot, DPBS with Mg and Ca, 0.1 mg/mL BSA, room temperature, 30 min

Sequence of IgE (full length human IgE, h-IgE) (Homo sapiens), P01854-1 (P01854 other isoform, or with tags, fused parts or gaps): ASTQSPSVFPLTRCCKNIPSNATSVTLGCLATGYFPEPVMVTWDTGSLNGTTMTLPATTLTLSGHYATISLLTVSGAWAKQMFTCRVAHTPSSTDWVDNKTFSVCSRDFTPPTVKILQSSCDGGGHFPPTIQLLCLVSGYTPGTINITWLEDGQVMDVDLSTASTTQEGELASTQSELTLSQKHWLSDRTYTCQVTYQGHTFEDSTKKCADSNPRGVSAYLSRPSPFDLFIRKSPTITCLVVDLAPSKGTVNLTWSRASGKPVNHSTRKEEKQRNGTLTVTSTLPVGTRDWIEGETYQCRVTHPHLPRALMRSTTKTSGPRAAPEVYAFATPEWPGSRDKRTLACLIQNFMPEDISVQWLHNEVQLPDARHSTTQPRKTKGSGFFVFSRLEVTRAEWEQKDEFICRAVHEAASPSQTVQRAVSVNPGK

Q: Which Kd (as ARC1666 (2'-OMe/2'-deoxy/deoxyinosine, 3' 3T cap) with PS between 8-9, 15-16, 16-17, 17-18, 18-19, 20-21 [2'-OMe at 1-5, 7, 10-15, 17, 22, 23, PS between 8-9, 15-16, 16-17, 17-18, 18-19, 20-21) does the source give for AGCCUGGGGACCCAUGGGGGGCU [ARC2982] here?
A: The Kd was 0.03 nM.

Q: Which Kd (as ARC1666 (2'-OMe/2'-deoxy/deoxyinosine, 3' 3T cap) with PS between 8-9, 15-16, 16-17, 18-19, 19-20, 20-21 [2'-OMe at 1-5, 7, 10-15, 17, 22, 23, PS between 8-9, 15-16, 16-17, 18-19, 19-20, 20-21) does the source give for AGCCUGGGGACCCAUGGGGGGCU [ARC2983] here?
A: Its Kd is 0.02 nM.

Q: For AGCCUGGGGACCCAUGGGGGGCU [ARC3901], which Kd (as ARC1666 (2'-OMe/2'-deoxy/deoxyinosine, 3' 3T cap) with PS between 8-9, 15-16, 16-17, 17-18, 18-19, 19-20, 20-21 [2'-OMe at 1-5, 7, 10-15, 17, 22, 23, PS between 8-9, 15-16, 16-17, 17-18, 18-19, 19-20, 20-21) is on record?
A: The Kd was 0.13 nM.

Q: For AGCCUGGGGACCCAUGGGGGGCU [ARC1666], which Kd (2'-OMe at A1 G2 C3 C4 U5 G7 A10 C11 C12 C13 A14 U15 G17 C22 U23, 2'-deoxy at G6 G8 G9 I16 I18 G19 I20 G21, n = deoxyinosine, PS between 8-9, 15-16, 16-17, 18-19, 20-21, 3' 3T cap (inverted dT) [2'-OMe at 1-5, 7, 10-15, 17, 22, 23) is on record?
A: Its Kd is 0.035 nM.
